Laboratory results published in ChEMBL document CHEMBL1138079.

Experiments:
[1] = substrate: NC(=O)c1cc(N2CC2)c([N+](=O)[O-])cc1[N+](=O)[O-]; test: Activity against Escherichia coli nitroreductase
[2] = biological target: Oxygen-insensitive NAD(P)H nitroreductase NfsB (Escherichia coli) (UniProt P38489); test: Activity against Escherichia coli nitroreductase

B1: Oxygen-insensitive NAD(P)H nitroreductase (Escherichia coli K-12), P38489 (protein)
chain: MDIISVALKRHSTKAFDASKKLTPEQAEQIKTLLQYSPSSTNSQPWHFIVASTEEGKARVAKSAAGNYVFNERKMLDASHVVVFCAKTAMDDVWLKLVVDQEDADGRFATPEAKAANDKGRKFFADMHRKDLHDDAEWMAKQVYLNVGNFLLGVAALGLDAVPIEGFDAAILDAEFGLKEKGYTSLVVVPVGHHSVEDFNATLPKSRLPQNITLTEV
Km [1]: 881 µM
Km [2]: 195 µM
